# Measurements as given in the supplement of paper PMC10567573.
# ± gives the standard deviation.
# Assay: protein stability index of a GFP-peptide fusion (GPS, HEK-293T) (PSI 1-6); higher = more stable
# Conditions: c terminus: a fixed tail appended
# 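Further: 24-mer peptide tiles fused after GFP, lentivirally expressed, FACS-sorted into six equal bins by GFP/DsRed ratio, decoded by Illumina sequencing, PSI is the read-weighted mean bin number.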
Sequence,protein stability index (treatment: DMSO),"protein stability index (treatment: MLN4924 1 uM, 8 h)"
LASGLVVFFLFPHSVLVDDDGIKV [TMEM106C],2.92 ± 0.48,2.86 ± 0.49
LCAPEVISLINTRMLFWACSTNKP [FAF2],3.04 ± 0.47,2.88 ± 0.41
LCEEFRNRNQRIVQLIQDTRIHIL [CPN1],2.25 ± 0.13,2.4 ± 0.26
LCQKSNDISIHHFTCDEENVFAAV [WDR41],2.84 ± 0.18,2.91 ± 0.31
LCVILYKKVHKGTVPKNDADDESE [GLT8D2],2.02 ± 0.15,2.31 ± 0.1
LDEALKHVKETQPPETVQNWIELL [GOLPH3],3.94 ± 0.18,4.17 ± 0.24
LEDMGQPPAEEAEQPGALAREFLA [FKBP8],5.15 ± 0.19,5.38 ± 0.2
LELLDKIERSKIVSTMRCKTRQKS [PPEF2],3.54 ± 0.43,3.73 ± 0.074
LELTVRRVQGVLRGRAREREQLQA [HES6],3.7 ± 0.45,3.64 ± 0.43
LENSKYCRFNQDPEAVDEDRSTEP [ATE1],5.5 ± 0.24,5.29 ± 0.45
LFDLMRRMLEFDPAQRITLAEALL [CLK3],2.05 ± 0.6,2.19 ± 0.11
LFEEILSNSRQLKWLSCGFMLEIV [FBXO33],3.02 ± 0.69,2.79 ± 0.57
LGGFSHWGRLTSYSGGGYYLDLPG [PKD2L1],2.47 ± 0.19,2.74 ± 0.25
LGNVLFSPICLSTSLSLAQVGAKG [SERPINB5],2.48 ± 0.2,2.12 ± 0.23
LGPLLSEPLVLYNQNLSNRPSFNR [MYOZ1],2.62 ± 0.13,2.95 ± 0.49
LGSGPDRELRKPEEPENGEPTAAA [PWWP2B],5.52 ± 0.18,5.25 ± 0.47
LGSGQFAIVRKCRQKGTGKEYAAK [DAPK3],3.55 ± 0.52,3.48 ± 0.16
LGVAQRSLPLQDELAFAEDLVLDE [ESRRA],3.38 ± 0.65,3.93 ± 0.71
LHLPIMGVVMKVRIPTCHDKPGTT [DENND6A],2.24 ± 0.31,2.25 ± 0.19
LHSLPGVSLSLENRELWKEFSSVG [TBX6],2.73 ± 0.19,2.83 ± 0.37
LHVAARYGHELLINTLITSGADTA [ANKRD44],2.52 ± 0.28,2.44 ± 0.72
LIHVYLPLTSHILRAFVNSQIQGH [SNX8],3.2 ± 0.27,3.19 ± 0.52

Sequence,protein stability index (treatment: DMSO),"protein stability index (treatment: MLN4924 1 uM, 8 h)"
LIISCRKLFYFKIWAFLDVSFVER [FBXO39],3.43 ± 0.47,2.9 ± 0.099
LINTIRVVCASYEDYGHWLLCLRA [PLEKHN1],2.76 ± 0.89,2.43 ± 0.41
LIRGSTFAKAKPEIPWTSLTRKGL [PHTF1],2.25 ± 0.17,2.41 ± 0.31
LISSGMSSHKQGHTSSEYDMLREM [TAF7L],3.75 ± 0.23,3.84 ± 0.19
LLAAQVQLQCSPAELQAELLHSQA [FBF1],2.56 ± 0.26,2.42 ± 0.45
LLHLHQTAHADEFDCPSELQHTQE [STEAP1],4.66 ± 0.11,4.78 ± 0.11
LLIEGRSVNEHTEEGESLLCLACS [ANKRD17],3.22 ± 0.6,3.27 ± 0.91
LLIPKEDGVITASEDRTIRVWLKR [WDFY1],2.42 ± 0.34,2.7 ± 0.51
LLLGAGESGKSTIVKQMKIIHEAG [GNAI1],2.51 ± 0.47,2.54 ± 0.65
LLMLENFIDGKFLPCSSYIDSYDP [ALDH8A1],1.97 ± 0.65,2.05 ± 0.56
LLPLTELSVCPLEGSREHAFQITG [PLEKHN1],2.88 ± 0.13,2.83 ± 0.24
LLPPGEPPLLGTFPRDHTSLALVQ [ANKRD40],3.48 ± 0.096,3.39 ± 0.31
LLSRINKDWLEGTVRGATGIFPLS [NCF4],2.17 ± 0.47,2.51 ± 0.74
LLSSGFEIDTPDKFGRTCLHAAAA [ANKRD44],2.95 ± 0.39,2.95 ± 0.035
LMDIVPADDHRYKFADNKWSVTGK [TBX5],3.63 ± 0.29,3.54 ± 0.15
LMDVTGGPFDLMSRRVIAANNRIL [IMPA1],2.75 ± 0.17,2.69 ± 0.2
LMYPSYTFSGDVQLAQDDIDGIQA [MMP1],4.1 ± 0.15,4.25 ± 0.25
LNVELDPEIQKVRAQEREQIKALN [KRT71],4.74 ± 0.13,4.75 ± 0.11
LPGAVATIVKPLSAIPQPTITKQE [HNF4A],4.51 ± 0.24,4.54 ± 0.17
LPLAYQQTSAFARQPRDELERVRV [TMEM175],4.01 ± 0.35,4.1 ± 0.27
LPPGFVLKKDKKKEEKEDEISLED [ZC3H15],5.54 ± 0.46,5.45 ± 0.36
LPRHQDQPHHQPPNRAGAPGESLE [TRAF3IP2],5.51 ± 0.2,5.43 ± 0.095
